Tested on: p110β
Experiment: Mass spectrometry assay of PIP3 production in vitro, brain lipids
Assay type: biochemical, mouse
Conditions: 10 nM protein, 100 μM ATP, 1 mg/ml lipid, 60 min; Figure S3A
Procedure: Figure S3, Related to Figures 1 and 2. Lipid Kinase Assays for p110β/p85 Constructs
(A) Lipid kinase activity of the p110β/p85β-nic, p110β/p85β-ni and p110β/p85β-ic, p110β C-terminal truncation/p85β-nic (ΔCter) and kinase dead (D913N) constructs as determined by mass spectroscopy. Error bars in panel A and other panels indicate SEM of four replicates.
(1 picture or pasted object on this page, not shown here)
Vesicles were "brain lipids" as in Figure S2. The protein concentration was 10 nM with 100 μM ATP and 1 mg/ml lipid. Reactions were carried out for 60 min. The bars show the integrated areas for the stearoyl-arachidonyl PtdIns(3,4,5)P3 peak.
(B) ATPase activity (no lipid substrate) of the wild-type and kinase dead p110β/p85β-nic construct in the absence and presence of 10 μM PDGF bis-phosphopeptide. Protein concentration was 75 nM with 100 μM ATP. Shaded bars represent activity for reactions with 5 μM added PI3K inhibitor GDC0941.
(C) Lipid kinase activity of a p110β/p85-icSH2 complex in which p110β Kα7/Kα8 elbow (966-KTGN) was replaced by the elbow of p110α (968-AQECTK). […]
The PIP3 lipids produced in PI3K in vitro assays as described above were also measured by a mass-spectrometry based assay (Clark et al.). […]

B1: p110β-ΔCter/nic: truncation mutant lacking 17 residues from the p110β C terminus; human ΔCter (1-1053) used in cells (protein, UniProt P42338 1-1053, looked up, fragment)
chain: MCFSFIMPPAMADILDIWAVDSQIASDGSIPVDFLLPTGIYIQLEVPREATISYIKQMLWKQVHNYPMFNLLMDIDSYMFACVNQTAVYEELEDETRRLCDVRPFLPVLKLVTRSCDPGEKLDSKIGVLIGKGLHEFDSLKDPEVNEFRRKMRKFSEEKILSLVGLSWMDWLKQTYPPEHEPSIPENLEDKLYGGKLIVAVHFENCQDVFSFQVSPNMNPIKVNELAIQKRLTIHGKEDEVSPYDYVLQVSGRVEYVFGDHPLIQFQYIRNCVMNRALPHFILVECCKIKKMYEQEMIAIEAAINRNSSNLPLPLPPKKTRIISHVWENNNPFQIVLVKGNKLNTEETVKVHVRAGLFHGTELLCKTIVSSEVSGKNDHIWNEPLEFDINICDLPRMARLCFAVYAVLDKVKTKKSTKTINPSKYQTIRKAGKVHYPVAWVNTMVFDFKGQLRTGDIILHSWSSFPDELEEMLNPMGTVQTNPYTENATALHVKFPENKKQPYYYPPFDKIIEKAAEIASSDSANVSSRGGKKFLPVLKEILDRDPLSQLCENEMDLIWTLRQDCREIFPQSLPKLLLSIKWNKLEDVAQLQALLQIWPKLPPREALELLDFNYPDQYVREYAVGCLRQMSDEELSQYLLQLVQVLKYEPFLDCALSRFLLERALGNRRIGQFLFWHLRSEVHIPAVSVQFGVILEAYCRGSVGHMKVLSKQVEALNKLKTLNSLIKLNAVKLNRAKGKEAMHTCLKQSAYREALSDLQSPLNPCVILSELYVEKCKYMDSKMKPLWLVYNNKVFGEDSVGVIFKNGDDLRQDMLTLQMLRLMDLLWKEAGLDLRMLPYGCLATGDRSGLIEVVSTSETIADIQLNSSNVAAAAAFNKDALLNWLKEYNSGDDLDRAIEEFTLSCAGYCVASYVLGIGDRHSDNIMVKKTGQLFHIDFGHILGNFKSKFGIKRERVPFILTYDFIHVIQQGKTGNTEKFGRFRQCCEDAYLILRRHGNLFITLFALMLTAGLPELTSVKDIQYLKDSLALGKSEEEALKQFKQKFDEALRESW
activity with brain lipids: no measurable activity
